T1: Rrp41/Rrp45 heterodimer (S. cerevisiae, UniProt P46948 1-246; Q05636 1-305)
T1 sequence (looked up) 1: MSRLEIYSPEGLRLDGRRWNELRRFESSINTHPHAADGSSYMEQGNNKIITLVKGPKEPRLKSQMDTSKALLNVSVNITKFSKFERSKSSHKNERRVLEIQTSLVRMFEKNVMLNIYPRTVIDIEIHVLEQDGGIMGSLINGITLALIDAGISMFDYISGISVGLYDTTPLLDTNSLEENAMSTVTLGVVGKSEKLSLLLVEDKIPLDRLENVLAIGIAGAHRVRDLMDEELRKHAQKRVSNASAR
T1 sequence (looked up) 2: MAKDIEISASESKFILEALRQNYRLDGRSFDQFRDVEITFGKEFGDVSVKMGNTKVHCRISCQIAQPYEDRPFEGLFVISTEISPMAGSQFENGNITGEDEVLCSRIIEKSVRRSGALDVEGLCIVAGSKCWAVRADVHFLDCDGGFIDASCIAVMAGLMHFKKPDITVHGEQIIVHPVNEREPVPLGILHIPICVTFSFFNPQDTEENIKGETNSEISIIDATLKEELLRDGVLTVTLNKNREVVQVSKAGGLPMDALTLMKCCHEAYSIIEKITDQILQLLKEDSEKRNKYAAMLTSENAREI


Biological target: T1, Rrp41/Rrp45 heterodimer
Experiment: SEC

| binding result | Binder |
| --- | --- |
| binds | Rrp4 (natural protein, S. cerevisiae, UniProt P38792 1-359, looked up) MSEVITITKRNGAFQNSSNLSYNNTGISDDENDEEDIYMHDVNSASKSESDSQIVTPGELVTDDPIWMRGHGTYFLDNMTYSSVAGTVSRVNRLLSVIPLKGRYAPETGDHVVGRIAEVGNKRWKVDIGGKQHAVLMLGSVNLPGGILRRKSESDELQMRSFLKEGDLLNAEVQSLFQDGSASLHTRSLKYGKLRNGMFCQVPSSLIVRAKNHTHNLPGNITVVLGVNGYIWLRKTSQMDLARDTPSANNSSSIKSTGPTGAVSLNPSITRLEEESSWQIYSDENDPSISNNIRQAICRYANVIKALAFCEIGITQQRIVSAYEASMVYSNVGELIEKNVMESIGSDILTAEKMRGNGN |
| binds | Rrp40 (natural protein, S. cerevisiae, UniProt Q08285 1-240, looked up) MSTFIFPGDSFPVDPTTPVKLGPGIYCDPNTQEIRPVNTGVLHVSAKGKSGVQTAYIDYSSKRYIPSVNDFVIGVIIGTFSDSYKVSLQNFSSSVSLSYMAFPNASKKNRPTLQVGDLVYARVCTAEKELEAEIECFDSTTGRDAGFGILEDGMIIDVNLNFARQLLFNNDFPLLKVLAAHTKFEVAIGLNGKIWVKCEELSNTLACYRTIMECCQKNDTAAFKDIAKRQFKEILTVKEE |
| binds | Csl4 (natural protein, S. cerevisiae, UniProt P53859 1-292, looked up) MACNFQFPEIAYPGKLICPQYGTENKDGEDIIFNYVPGPGTKLIQYEHNGRTLEAITATLVGTVRCEEEKKTDQEEEREGTDQSTEEEKSVDASPNDVTRRTVKNILVSVLPGTEKGRKTNKYANNDFANNLPKEGDIVLTRVTRLSLQRANVEILAVEDKPSPIDSGIGSNGSGIVAAGGGSGAATFSVSQASSDLGETFRGIIRSQDVRSTDRDRVKVIECFKPGDIVRAQVLSLGDGTNYYLTTARNDLGVVFARAANGAGGLMYATDWQMMTSPVTGATEKRKCAKPF |

Source: article PMC8596991 (Methods in molecular biology (Clifton, N.J.), 2020)
